{"source": "the DeepSol protein solubility set", "data": [{"assay": "soluble on expression in E. coli; label from the status in PepcDB or PDB records", "values": [{"sequence": "GLTYDLNGNISTYRNEILELPETVAANGKFGGNGVKSVVGHTYGAQVGYIADGIFKSQDEVDNHATQEGAAVGRIRYRDIDHNGVIDERDQNWIYDPTPSFSYGLNIYLEYKNFDLTMFWQGVQGVDIISDVKKKSDFWSASNVGFLNKGTRLLNAWSPTNPNSDIPALTRSDTNNEQRVSTYFVENGSFLKLRNIQLGYTVPAVISKKMRMDRLRFYCSAQNLLTIKSKNFTGEDPENPNFSYPIPVNITFGLNIGF", "soluble on expression in E. coli": "not soluble"}, {"sequence": "GMAGKVEARKAALREKLIDLAEAQIEAEGLASLRARELARQADCAVGAIYTHFQDLNALTLEVNGRTFARLGAAVGAVVADGQDDHPNERLIAMSHAYLAFAREHPKLWRALFDVEMRSDGPVPQWYGHAMAQLFSYITTPLAKIFPESDDAELDLMTRTLFSSVHGIVLLGLENRISGVPGEQLKTMIRLLLEQVGR", "soluble on expression in E. coli": "soluble"}, {"sequence": "GMAHPPQIRIPATYLRGGTSKGVFFRLEDLPESCRVPGEARDRLFMRVIGSPDPYAAHIDGMGGATSSTSKCVILSKSSQPGHDVDYLYGQVSIDKPFVDWSGNCGNLSTGAGAFALHAGLVDPARIPEDGICEVRIWQANIGKTIIAHVPVSGGQVQETGDFELDGVTFPAAEIVLEFLDPSDDGEDGGAIFPTGNLVDDLEVPGVGTFKATMINAGIPTVFVNAEEIGYRGTELREEINGDPQQLARFERIRVAGALRMGLIKTPEEAATRQHTPKIAFVAPPRDYRTASGKLVAAGDIDLLVRALSMGKLHHAMMGTAAVAIGTAAAIPGTLVNLAAGGGERSAVRFGHPSGTLRVGAEASQANGEWTVTKAIMSRSARILMEGWVRVPGDAF", "soluble on expression in E. coli": "soluble"}, {"sequence": "GMARKRLIIEMGMGIDQHGQEPTIAASRAVRNAIAHNALPGVWEVAGLSHPNEMIIEVQVAVPYPEQVREEEVLAVLPFGRKTLTVESGGMIVQGRAIPELNDKNDEMLIAIAAVTVLIENE", "soluble on expression in E. coli": "soluble"}, {"sequence": "GMASEFDLIQRYFRRAHPSAVLGVGDDAALIQPSPGMELAVSADMLVANTHFYPNIDPWLIGWKSLAVNISDMAAMGAQPRWATLTIALPEADEDWISKFAAGFFACAAQFDIALIGGDTTRGPLTISVQIMGETPPGASLLRSTARADDDIWVSGPLGDAALALAAIQGRYPLSDTELAACGKALHQPQPRVVLGQALRGLAHSALDISDGLLADLGHILEHSQVGAEVWLKAIPKSEVVSAHSQEVAIQKMILSGGDDYELCFTASTQHRQQIADIGRQLSLDMAVIGRITDTQQLVIHGLDDAPLTLKEHGFDHFA", "soluble on expression in E. coli": "soluble"}, {"sequence": "GMCINRQILNAVTASNRKKNTPLNTYVSFDEPVNPEDDSQVKLVDVLKSDKEQNPERLFIDQENAESLEDKLYSVLSGFEKNVLELYMSGKDYIAIAQTLDKPPKSIDNAIQRIRNKVDKITNL", "soluble on expression in E. coli": "not soluble"}, {"sequence": "GMDDETLRLQFGHLIRILPTLLEFEKKGYEPSLAEIVKASGVSEKTFFMGLKDRLIRAGLVKEETLSYRVKTLKLTEKGRRLAECLEKCRDVLGS", "soluble on expression in E. coli": "soluble"}, {"sequence": "GMDISGRDVETRLTLAREFMSGVDELPTVPDIVLRIAGKLNDPDVAIDEVADLLLQDQVLTARVVHLANSPLYSAARPISSIRDAVIYLGLDLLREAIFTCAIVDLFKTGKGPLNRSTLWAHSLGVARIAKLIAERTGFLNPVNVYVAGLLHDVGEVFINFFRGKEFSQVVTLVDEEKITFGQAEERLFGTSHCEVGFALAKRWSLNEFICDTILYHHDIEAVPYKQAAIVAMVAFADEYCTLRRLGFEGHKPVDSVRTLLENHPSWGVIRRSLGGSDFDEKLIVAELDSSIVEIRAAVDELFLL", "soluble on expression in E. coli": "soluble"}, {"sequence": "GMDISLLKQVVQSTNKIALSTAVNNEADVKIVNFVWYEAQPDTLYFSSVKTSPALKVYDQNPDIAFITIPNDGTAGNPYLRAQHVKLQRSTKTMTDLLPQYLETVPNYQQVWDAIGSTLVVFELKLTDLFVDAGVGGEKQTLTFN", "soluble on expression in E. coli": "soluble"}, {"sequence": "GMDRTLTHQPQEYAVSVSVGEVKLKGNLVIPNGATGIVLFAHGSGSSRYSPRNRYVAEVLQQAGLATLLIDLLTQEEEEIDLRTRHLRFDIGLLASRLVGATDWLTHNPDTQHLKVGYFGASTGGGAALVAAAERPETVQAVVSRGGRPDLAPSALPHVKAPTLLIVGGYDLPVIAMNEDALEQLQTSKRLVIIPRASHLFEEPGALTAVAQLASEWFMHYLR", "soluble on expression in E. coli": "soluble"}, {"sequence": "GMDVEIVEELSKMLAGRKAVTEEEIRRKAIRCALKIMGARLVGIDAELIEDVTCSLIDCPITLKSLHFSEKVKIGDVLFYHPHVIKPEKEDFEQAYFEYKQSKKFLDAFDIMREVTDRFFEGYEAEGRYMRKYTKDGRNYYAFFSTIDDTFEDVDIHLRMVDEVDGDYVVIVPTENELNPFLKFFKQYSEDAKRAGLKIWVVNPDEKTIDPFIGYPKDFRLLKGFKNPKAAALVSAYWRVTVTDLD", "soluble on expression in E. coli": "soluble"}, {"sequence": "GMGMEHKTYEADLFVWCQQQADGLRALSRSRRDLPDDLDLEHIAEEIEDMGRSELREATSLVRQICVRVIMAMSAPEAPDRARWRSEVVSWHNLLLDTITPGMIDRIDIGVIWRRAVSEAKAALIEINVAPQAGLSFQAPLPADHFLDEDFDYDATVARLGPTA", "soluble on expression in E. coli": "soluble"}, {"sequence": "GMGQQESTLGGAAGEPRSRGHAAGTSGGPGDHLHATPGMFVQHSTAIFSDRYKGQRVLGKGSFGEVILCKDKITGQECAVKVISKRQVKQKTDKESLLREVQLLKQLDHPNIMKLYEFFEDKGYFYLVGEVYTGGELFDEIISRKRFSEVDAARIIRQVLSGITYMHKNKIVHRDLKPENLLLESKSKDANIRIIDFGLSTHFEASKKMKDKIGTAYYIAPEVLHGTYDEKCDVWSTGVILYILLSGCPPFNGANEYDILKKVEKGKYTFELPQWKKVSESAKDLIRKMLTYVPSMRISARDALDHEWIQTYTKEQISVDVPSLDNAILNIRQFQGTQKLAQAALLYMGSKLTSQDETKELTAIFHKMDKNGDGQLDRAELIEGYKELMRMKGQDASMLDASAVEHEVDQVLDAVDFDKNGYIEYSEFVTVAMDRKTLLSRERLERAFRMFDSDNSGKISSTELATIFGVSDVDSETWKSVLSEVDKNNDGEVDFDEFQQMLLKLCGN", "soluble on expression in E. coli": "soluble"}, {"sequence": "GMIEKVYEFKRDAKTKVVEKLVNTEHVQINHIVLPRGEQMPKHYSNSYVHLIIIKGEMTLTLEDQEPHNYKEGNIVYVPFNVKMLIQNINSDILEFFVVKAPHPKKLNAPEDPIKCE", "soluble on expression in E. coli": "soluble"}, {"sequence": "GMKPLKEVVGAYLALSDAQRQLVAGEYDEAAANCRRAMEISHTMPPEEAFDHAGFDAFCHAGLAEALAGLRSFDEALHSADKALHYFNRRGELNQDEGKLWISAVYSRALALDGLGRGAEAMPEFKKVVEMIEERKGETPGKERMMEVAIDRIAQLGAS", "soluble on expression in E. coli": "soluble"}, {"sequence": "GMLKILATQFNGKLQTLTKQEDELFDVVRLLAQALVGQGKVYLDAYGEFEGLYPMLSDGPDQMKRVTKIKDHKTLHAVDRVLIFTPDTERSDLLASLARYDAWHTPYSIITLGDVTETLERSIAPLALKFDKGLLPAEDGSRHGLPSLALGAFLLTHILTQLQEMTEEWE", "soluble on expression in E. coli": "soluble"}, {"sequence": "GMLPDDVNQADVLADVTAAFYRYEKALTGNDVAVLDELFWHDEKTVRYGAGENLYGIEEIRAFRLARPSAGLDRALRNTVITTYGHDMAVASTEFTRTGSTKIGRQMQTWVKMPEGWRIVAAHVSLMSE", "soluble on expression in E. coli": "soluble"}, {"sequence": "GMLSNLESSIQSPKSGEYQCLAALNLYDSPECTSLATQAAVGRHLQVTSNQQGAAVEVCLCEDDYPGWLSLGDLGLLKPATVLYQAKSFSESEIKKLLPGAIAFTQKAMQQSNYYLWGGTVGPNYDCSGLMQAAFVSVGIWLPRDAYQQEAFTQAITIDELAPGDLVFFGTPVKATHVGLYLGDGCYIHSSGKAQGRDGIGIDILSEQGDVVSRSYYQQLRGAGRVVKSYKPQRH", "soluble on expression in E. coli": "soluble"}, {"sequence": "GMSAPVTLINPFKVPADKLEAAIEYWEAHRDFMAQQPGYLSTQLHQSIDEGATYQLINVAIWQSEADFYQAAQKMRQALGHVQVEGLCGNPALYRVIRT", "soluble on expression in E. coli": "soluble"}, {"sequence": "GMSARDVFHEVVKTALKKDGWQITDDPLTISVGGVNLSIDLAAQKLIAAERQGQKIAVEVKSFLKQSSAISEFHTALGQFINYRGALRKVEPDRVLYLAVPLTTYKTFFQLDFPKEIIIENQVKMLVYDVEQEVIFQWIN", "soluble on expression in E. coli": "soluble"}, {"sequence": "GMSEIDANYRALAQQVADKVAGRVIALDRLPESLLTAYRSLCDELLADRDGRFTRAWDQLPDSASSLFERCVFHGFYLANAWIQLSIVARDISELQDTDEAIAEQEYSGLYVRVAEAALKESVKKLKKARTDRSMYNSMREVMGI", "soluble on expression in E. coli": "soluble"}]}]}
